Measurements published in article PMC4805503 (Traffic (Copenhagen, Denmark), 2016).
Substitutions are numbered along the chain they refer to. Names and notes keep the numbering of the source. Each block holds one molecule with its values, some of them ahead of it.

Tests used:
tepsin (Homo sapiens) = tepsin (Homo sapiens) (UniProt Q96N21); details: cited from earlier work
[1] = biological target: T1, AP4 β4 C-terminal appendage domain (residues 612–739), wild type (UniProt Q9Y6B7 612-739); assay: pull-down
T1 sequence (looked up): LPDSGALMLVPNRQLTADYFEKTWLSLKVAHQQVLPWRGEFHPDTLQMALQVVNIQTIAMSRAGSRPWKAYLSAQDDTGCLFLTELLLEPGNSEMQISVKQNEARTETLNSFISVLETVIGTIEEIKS

[2] = biological target: T1, AP4 β4 C-terminal appendage domain …; assay: ITC

Molecule: AP4 ε appendage domain (from UniProt Q9UPM8)
Kd (tepsin (Homo sapiens)): 3 µM

B1: GST-tepsin (residues 450–525) (domain or fragment, UniProt Q96N21 450-525, looked up)
chain: PGGTDSPKRGPSSCAWSRDSLFAGMELVACPRLVGAGAAAGESCPDAPRAPQTSSQRTAAKEPPGSEPSAFAFLNA
binding result [1]: binds

B2: tepsin C-terminal fragment (residues 450–500), GST removed (domain or fragment, UniProt Q96N21 450-500, looked up)
chain: PGGTDSPKRGPSSCAWSRDSLFAGMELVACPRLVGAGAAAGESCPDAPRAP
Kd [2]: 2.9 µM
stoichiometry N [2]: 1

The next lines start with the values.

Kd [2]: > 300 µM
B3: tepsin fragment (residues 450–500) L470S/F471S, GST removed (domain or fragment, UniProt Q96N21 450-500, looked up)
chain: B2 chain with L21S, F22S

fold weaker binding than wild type [2]: ~15 fold
B4: tepsin fragment (residues 450–500) L476S/V477S, GST removed (domain or fragment, UniProt Q96N21 450-500, looked up)
chain: B2 chain with L27S, V28S

Kd [2]: > 300 µM
B5: tepsin fragment (residues 450–500) G473I/M474Q, GST removed (domain or fragment, UniProt Q96N21 450-500, looked up)
chain: B2 chain with G24I, M25Q
